Experimental data reported in IntAct's records for PubMed 31515488.

B1: PDZ and LIM domain protein 5 (Homo sapiens), Q96HC4 (parent)
chain: MSNYSVSLVGPAPWGFRLQGGKDFNMPLTISSLKDGGKAAQANVRIGDVVLSIDGINAQGMTHLEAQNKIKGCTGSLNMTLQRASAAPKPEPVPVQKGEPKEVVKPVPITSPAVSKVTSTNNMAYNKAPRPFGSVSSPKVTSIPSPSSAFTPAHATTSSHASPSPVAAVTPPLFAASGLHANANLSADQSPSALSAGKTAVNVPRQPTVTSVCSETSQELAEGQRRGSQGDSKQQNGPPRKHIVERYTEFYHVPTHSDASKKRLIEDTEDWRPRTGTTQSRSFRILAQITGTEHLKESEADNTKKANNSQEPSPQLASSVASTRSMPESLDSPTSGRPGVTSLTAAAAFKPVGSTGVIKSPSWQRPNQGVPSTGRISNSATYSGSVAPANSALGQTQPSDQDTLVQRAEHIPAGKRTPMCAHCNQVIRGPFLVALGKSWHPEEFNCAHCKNTMAYIGFVEEKGALYCELCYEKFFAPECGRCQRKILGEVISALKQTWHVSCFVCVACGKPIRNNVFHLEDGEPYCETDYYALFGTICHGCEFPIEAGDMFLEALGYTWHDTCFVCSVCCESLEGQTFFSKKDKPLCKKHAHSVNF
B2: E3 ubiquitin-protein ligase MARCHF5 (Homo sapiens), Q9NX47 (parent)
chain: MPDQALQQMLDRSCWVCFATDEDDRTAEWVRPCRCRGSTKWVHQACLQRWVDEKQRGNSTARVACPQCNAEYLIVFPKLGPVVYVLDLADRLISKACPFAAAGIMVGSIYWTAVTYGAVTVMQVVGHKEGLDVMERADPLFLLIGLPTIPVMLILGKMIRWEDYVLRLWRKYSNKLQILNSIFPGIGCPVPRIPAEANPLADHVSATRILCGALVFPTIATIVGKLMFSSVNSNLQRTILGGIAFVAIKGAFKVYFKQQQYLRQAHRKILNYPEQEEA
partner: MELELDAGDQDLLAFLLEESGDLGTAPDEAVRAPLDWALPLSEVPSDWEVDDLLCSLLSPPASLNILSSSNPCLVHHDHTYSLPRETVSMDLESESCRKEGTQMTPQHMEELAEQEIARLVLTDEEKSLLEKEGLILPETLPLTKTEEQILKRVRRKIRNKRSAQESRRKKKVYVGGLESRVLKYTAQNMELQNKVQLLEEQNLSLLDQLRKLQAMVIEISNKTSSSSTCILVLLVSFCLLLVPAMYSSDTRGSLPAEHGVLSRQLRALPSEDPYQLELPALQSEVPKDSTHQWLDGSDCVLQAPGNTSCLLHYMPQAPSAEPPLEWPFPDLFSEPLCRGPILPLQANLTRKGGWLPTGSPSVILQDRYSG
B3: Cyclin-H (Homo sapiens), P51946 (parent)
chain: MYHNSSQKRHWTFSSEEQLARLRADANRKFRCKAVANGKVLPNDPVFLEPHEEMTLCKYYEKRLLEFCSVFKPAMPRSVVGTACMYFKRFYLNNSVMEYHPRIIMLTCAFLACKVDEFNVSSPQFVGNLRESPLGQEKALEQILEYELLLIQQLNFHLIVHNPYRPFEGFLIDLKTRYPILENPEILRKTADDFLNRIALTDAYLLYTPSQIALTAILSSASRAGITMESYLSESLMLKENRTCLSQLLDIMKSMRNLVKKYEPPRSEEVAVLKQKLERCHSAELALNVITKKRKGYEDDDYVSKKSKHEEEEWTDDDLVESL
partner: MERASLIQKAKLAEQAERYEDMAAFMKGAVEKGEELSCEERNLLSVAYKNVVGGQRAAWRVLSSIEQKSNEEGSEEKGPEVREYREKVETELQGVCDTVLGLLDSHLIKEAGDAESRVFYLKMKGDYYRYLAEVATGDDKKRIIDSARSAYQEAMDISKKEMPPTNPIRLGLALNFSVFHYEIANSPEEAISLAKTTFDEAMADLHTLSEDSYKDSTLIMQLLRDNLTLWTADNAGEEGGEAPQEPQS
B4: Methanethiol oxidase (Homo sapiens), Q13228 (parent)
chain: MATKCGNCGPGYSTPLEAMKGPREEIVYLPCIYRNTGTEAPDYLATVDVDPKSPQYCQVIHRLPMPNLKDELHHSGWNTCSSCFGDSTKSRTKLVLPSLISSRIYVVDVGSEPRAPKLHKVIEPKDIHAKCELAFLHTSHCLASGEVMISSLGDVKGNGKGGFVLLDGETFEVKGTWERPGGAAPLGYDFWYQPRHNVMISTEWAAPNVLRDGFNPADVEAGLYGSHLYVWDWQRHEIVQTLSLKDGLIPLEIRFLHNPDAAQGFVGCALSSTIQRFYKNEGGTWSVEKVIQVPPKKVKGWLLPEMPGLITDILLSLDDRFLYFSNWLHGDLRQYDISDPQRPRLTGQLFLGGSIVKGGPVQVLEDEELKSQPEPLVVKGKRVAGGPQMIQLSLDGKRLYITTSLYSAWDKQFYPDLIREGSVMLQVDVDTVKGGLKLNPNFLVDFGKEPLGPALAHELRYPGGDCSSDIWI
partner: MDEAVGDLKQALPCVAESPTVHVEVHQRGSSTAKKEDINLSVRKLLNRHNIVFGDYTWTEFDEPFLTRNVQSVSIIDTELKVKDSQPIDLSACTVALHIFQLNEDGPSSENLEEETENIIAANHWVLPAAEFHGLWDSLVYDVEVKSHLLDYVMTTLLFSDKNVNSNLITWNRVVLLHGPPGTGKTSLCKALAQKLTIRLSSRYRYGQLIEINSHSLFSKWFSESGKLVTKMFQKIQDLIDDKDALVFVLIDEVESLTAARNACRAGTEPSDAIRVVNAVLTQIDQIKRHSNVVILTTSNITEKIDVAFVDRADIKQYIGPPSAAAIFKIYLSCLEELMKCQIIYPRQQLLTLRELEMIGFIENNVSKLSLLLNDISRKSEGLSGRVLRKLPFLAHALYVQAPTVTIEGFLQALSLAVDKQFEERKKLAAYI
B5: Actin nucleation-promoting factor WAS (Homo sapiens), P42768 (parent)
chain: MSGGPMGGRPGGRGAPAVQQNIPSTLLQDHENQRLFEMLGRKCLTLATAVVQLYLALPPGAEHWTKEHCGAVCFVKDNPQKSYFIRLYGLQAGRLLWEQELYSQLVYSTPTPFFHTFAGDDCQAGLNFADEDEAQAFRALVQEKIQKRNQRQSGDRRQLPPPPTPANEERRGGLPPLPLHPGGDQGGPPVGPLSLGLATVDIQNPDITSSRYRGLPAPGPSPADKKRSGKKKISKADIGAPSGFKHVSHVGWDPQNGFDVNNLDPDLRSLFSRAGISEAQLTDAETSKLIYDFIEDQGGLEAVRQEMRRQEPLPPPPPPSRGGNQLPRPPIVGGNKGRSGPLPPVPLGIAPPPPTPRGPPPPGRGGPPPPPPPATGRSGPLPPPPPGAGGPPMPPPPPPPPPPPSSGNGPAPPPLPPALVPAGGLAPGGGRGALLDQIRQGIQLNKTPGAPESSALQPPPQSSEGLVGALMHVMQKRSRAIHSSDEGEDQAGDEDEDDEWDD
B6: Ras association domain-containing protein 7 (Homo sapiens), Q02833 (parent)
chain: MLLGLAAMELKVWVDGIQRVVCGVSEQTTCQEVVIALAQAIGQTGRFVLVQRLREKERQLLPQECPVGAQATCGQFASDVQFVLRRTGPSLAGRPSSDSCPPPERCLIRASLPVKPRAALGCEPRKTLTPEPAPSLSRPGPAAPVTPTPGCCTDLRGLELRVQRNAEELGHEAFWEQELRREQAREREGQARLQALSAATAEHAARLQALDAQARALEAELQLAAEAPGPPSPMASATERLHQDLAVQERQSAEVQGSLALVSRALEAAERALQAQAQELEELNRELRQCNLQQFIQQTGAALPPPPRPDRGPPGTQGPLPPAREESLLGAPSESHAGAQPRPRGGPHDAELLEVAAAPAPEWCPLAAQPQAL
B7: Fructose-bisphosphate aldolase C (Homo sapiens), P09972 (parent)
chain: MPHSYPALSAEQKKELSDIALRIVAPGKGILAADESVGSMAKRLSQIGVENTEENRRLYRQVLFSADDRVKKCIGGVIFFHETLYQKDDNGVPFVRTIQDKGIVVGIKVDKGVVPLAGTDGETTTQGLDGLSERCAQYKKDGADFAKWRCVLKISERTPSALAILENANVLARYASICQQNGIVPIVEPEILPDGDHDLKRCQYVTEKVLAAVYKALSDHHVYLEGTLLKPNMVTPGHACPIKYTPEEIAMATVTALRRTVPPAVPGVTFLSGGQSEEEASFNLNAINRCPLPRPWALTFSYGRALQASALNAWRGQRDNAGAATEEFIKRAEVNGLAAQGKYEGSGEDGGAAAQSLYIANHAY
partner: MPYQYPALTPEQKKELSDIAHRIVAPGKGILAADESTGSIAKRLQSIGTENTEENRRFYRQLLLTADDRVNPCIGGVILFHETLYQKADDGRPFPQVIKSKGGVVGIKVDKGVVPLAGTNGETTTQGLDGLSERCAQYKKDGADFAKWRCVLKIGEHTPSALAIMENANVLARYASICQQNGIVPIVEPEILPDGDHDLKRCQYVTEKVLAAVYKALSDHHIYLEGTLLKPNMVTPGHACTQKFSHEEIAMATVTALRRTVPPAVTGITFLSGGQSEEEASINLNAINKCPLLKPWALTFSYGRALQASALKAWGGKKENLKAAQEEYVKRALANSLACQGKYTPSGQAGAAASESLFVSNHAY
B8: Protein LDOC1 (Homo sapiens), O95751 (parent)
chain: MVDELVLLLHALLMRHRALSIENSQLMEQLRLLVCERASLLRQVRPPSCPVPFPETFNGESSRLPEFIVQTASYMLVNENRFCNDAMKVAFLISLLTGEAEEWVVPYIEMDSPILGDYRAFLDEMKQCFGWDDDEDDDDEEEEDDY
partner: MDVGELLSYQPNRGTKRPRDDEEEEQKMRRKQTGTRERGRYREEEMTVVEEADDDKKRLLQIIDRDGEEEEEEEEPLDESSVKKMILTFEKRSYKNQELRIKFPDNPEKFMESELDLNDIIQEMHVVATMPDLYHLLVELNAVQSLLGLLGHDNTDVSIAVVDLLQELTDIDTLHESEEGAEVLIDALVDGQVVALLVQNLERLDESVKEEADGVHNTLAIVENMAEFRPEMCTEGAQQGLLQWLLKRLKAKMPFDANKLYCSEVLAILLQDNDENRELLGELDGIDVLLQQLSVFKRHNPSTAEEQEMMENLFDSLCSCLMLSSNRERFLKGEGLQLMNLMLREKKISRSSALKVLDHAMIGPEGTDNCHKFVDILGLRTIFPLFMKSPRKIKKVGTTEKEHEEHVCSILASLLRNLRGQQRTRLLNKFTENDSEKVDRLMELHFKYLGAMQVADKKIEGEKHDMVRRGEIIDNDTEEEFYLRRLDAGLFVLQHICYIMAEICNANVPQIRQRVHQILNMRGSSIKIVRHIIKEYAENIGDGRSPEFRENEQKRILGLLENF

Variants of: B1
Conditions: with cc136_human CCDC136, Q96JN2
Chain of cc136_human CCDC136, Q96JN2 (Q96JN2 whole entry): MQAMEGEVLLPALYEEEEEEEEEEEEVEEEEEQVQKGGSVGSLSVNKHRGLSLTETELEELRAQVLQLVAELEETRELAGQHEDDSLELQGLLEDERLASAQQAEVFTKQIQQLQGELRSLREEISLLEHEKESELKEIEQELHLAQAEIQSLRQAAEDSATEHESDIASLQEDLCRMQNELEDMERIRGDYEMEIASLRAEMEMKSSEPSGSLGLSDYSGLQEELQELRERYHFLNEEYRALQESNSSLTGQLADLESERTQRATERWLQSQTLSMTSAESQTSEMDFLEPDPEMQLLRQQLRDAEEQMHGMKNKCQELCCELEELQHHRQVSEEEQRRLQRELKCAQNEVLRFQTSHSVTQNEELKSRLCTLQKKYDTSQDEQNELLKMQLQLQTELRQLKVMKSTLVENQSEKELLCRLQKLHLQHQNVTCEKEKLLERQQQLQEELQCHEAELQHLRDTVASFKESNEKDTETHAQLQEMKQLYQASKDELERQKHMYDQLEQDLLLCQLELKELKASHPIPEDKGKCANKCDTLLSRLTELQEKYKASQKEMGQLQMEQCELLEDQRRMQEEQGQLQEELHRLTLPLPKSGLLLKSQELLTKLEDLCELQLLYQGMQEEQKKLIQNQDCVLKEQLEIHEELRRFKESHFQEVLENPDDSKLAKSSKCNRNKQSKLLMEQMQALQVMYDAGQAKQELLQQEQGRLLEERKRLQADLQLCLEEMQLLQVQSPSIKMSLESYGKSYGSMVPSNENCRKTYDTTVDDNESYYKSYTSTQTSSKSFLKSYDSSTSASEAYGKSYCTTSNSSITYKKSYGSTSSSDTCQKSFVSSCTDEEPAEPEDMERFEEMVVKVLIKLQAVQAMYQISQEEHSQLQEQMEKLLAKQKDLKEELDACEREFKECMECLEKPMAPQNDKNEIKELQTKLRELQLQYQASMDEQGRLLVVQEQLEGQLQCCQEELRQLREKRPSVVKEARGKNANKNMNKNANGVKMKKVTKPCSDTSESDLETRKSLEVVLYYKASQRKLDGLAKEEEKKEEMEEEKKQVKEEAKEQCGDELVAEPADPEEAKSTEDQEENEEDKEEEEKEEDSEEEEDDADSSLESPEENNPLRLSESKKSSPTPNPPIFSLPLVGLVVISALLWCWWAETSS

effect of a mutation on the interaction | Variant
with no effect | S136F
with no effect | P388S

Variants of: B1
Conditions: with coil_human COIL

effect of a mutation on the interaction | Variant
with no effect | P388S

Variants of: B2
Conditions: with creb3_human CREB3, O43889

effect of a mutation on the interaction | Variant
with no effect | D202N
with no effect | T20A

Variants of: B3
Conditions: with 1433s_human SFN

effect of a mutation on the interaction | Variant
with no effect | N155T

Variants of: B4
Conditions: with pch2_human TRIP13, Q15645

effect of a mutation on the interaction | Variant
with no effect | R211Q

Variants of: B5
Conditions: with cdc42_human CDC42, P60953
Chain of cdc42_human CDC42, P60953 (P60953 whole entry, looked up): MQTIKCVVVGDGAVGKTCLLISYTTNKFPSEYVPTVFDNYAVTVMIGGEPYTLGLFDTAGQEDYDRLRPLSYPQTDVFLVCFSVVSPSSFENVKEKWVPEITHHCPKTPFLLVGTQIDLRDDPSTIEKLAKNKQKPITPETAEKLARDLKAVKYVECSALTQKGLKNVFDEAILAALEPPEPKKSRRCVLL

effect of a mutation on the interaction | Variant
with no effect | E131K
disrupting interaction strength | I294T

Variants of: B6
Conditions: with nck2_human NCK2, O43639
Chain of nck2_human NCK2, O43639 (O43639 whole entry): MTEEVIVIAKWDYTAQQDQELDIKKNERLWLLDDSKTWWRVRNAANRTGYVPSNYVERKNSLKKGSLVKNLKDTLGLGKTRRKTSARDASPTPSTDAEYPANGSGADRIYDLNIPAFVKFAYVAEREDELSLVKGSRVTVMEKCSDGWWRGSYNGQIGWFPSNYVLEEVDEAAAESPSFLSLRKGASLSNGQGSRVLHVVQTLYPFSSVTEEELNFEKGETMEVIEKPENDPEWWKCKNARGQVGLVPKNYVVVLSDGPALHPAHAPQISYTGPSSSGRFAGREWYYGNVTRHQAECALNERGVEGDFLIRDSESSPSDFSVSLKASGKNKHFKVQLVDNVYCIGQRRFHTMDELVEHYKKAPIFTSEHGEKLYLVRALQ

effect of a mutation on the interaction | Variant
with no effect | R156Q

Variants of: B7
Conditions: with aldoa_human ALDOA

effect of a mutation on the interaction | Variant
with no effect | N312S

Variants of: B8
Conditions: with ctbl1_human CTNNBL1, Q8WYA6

effect of a mutation on the interaction | Variant
disrupting interaction strength | L12H
